Source: patent publication US7256321B2, “Intracellular modulators of apoptopic cell death pathways” (Applied Research Systems ARS Holding N.V., priority 1997, dated 2007)

Assays:
Assay type in all cases: cell-based, mouse
3DO transfected clones [1] = assay: Anti-CD3-induced apoptosis of 3DO transfected clones (propidium iodide flow cytometry); conditions: GILR expression in transfected 3DO clones
Method: Thymocytes were obtained from 3 to 5-week-old C3H/HeN mice purchased from Charles River (Milan, Italy). The cell suspensions were washed, filtered and adjusted to a concentration of 8×10^6 cells/ml in complete medium. The cells were incubated at 37° C. alone or with 100 nM/l DEX (Sigma, St. Louis, Mo.) for 3 hrs. A CD3+, CD4+, CD2+, CD44+ sub-line obtained in our laboratory of the OVA-specific mouse hybridoma T cell line (3DO; Ayroldi et al., 1995) maintained in suspension in RPMI 1640 medium supplemented with 10% FCS and […] HEPES buffer was used for transfection experiments. […]
The GILR cDNA coding sequence (874 bp—see FIG. 2) was cloned into a pcDNA3 plasmid (Invitrogen) for expression in mammalian cells. […] These surviving cells were considered clones and analyzed in an RNase protection assay for the expression of exogenous GILR (Vito et al., 1996). […]
Apoptosis was measured by flow cytometry as described elsewhere (Nicoletti et al., 1991). […] The PI-fluorescence of individual nuclei was measured by flow cytometry using standard FACScan equipment (Becton Dickinson). […] A 560 nm dichroid mirror (DM 570) and a 600 nm band pass filter (band width 35 nm) were used to collect the red fluorescence due to PI DNA staining. The data were recorded in logarithmic scale in a Hewlett Packard (HP 9000, model 310; Palo Alto, Calif.) computer. […]

[2] = test system: Fas/Fas-L expression on 3DO transfected clones; assay: Fas and Fas-L expression on 3DO transfected clones (flow cytometry); conditions: GILR expression in transfected 3DO clones
Method: Hamster anti-mouse CD3ε (clone 145-2C11; Pharmingen, San Diego, Calif.) mAb at 1 μg/well (=1 μg/ml of anti-CD3 antibody) was allowed to adhere to flat-bottomed, high-binding 96-well plates (Costar, Cambridge, Mass.) at 4° C. in 100 μl PBS. After 20 hours, plates coated with mAb were washed and transfected clones were plated at 1×10^5 cells/well and incubated at 37° C. for 20 hours. Isotype-matched rat anti-mouse IgG 2b mAbs (clone R 35-38, Pharmingen) were used a control.
A single suspension (1×10^6cells/sample) was incubated for 30 minutes on ice in 50 μl staining buffer (PBS plus 5% FCS), containing 10 μg/ml hamster anti-mouse Fas mAb directly conjugated to R-phycoerythrin (PE) or PE-hamster IgG (isotype control).
Both mAbs were purchased from Pharmingen. Cells were also stained with rabbit polyclonal antibody raised against a peptide corresponding to amino acids 260-279 mapping at the carboxy terminus of human Fas-L (Santa Cruz Biotechnology, Inc., Santa Cruz, Calif.) or with isotype-matched antibody (ab), and with anti-rabbit IgG FITC conjugate, F(ab′)2 fragment (Sigma), as a second step reagent.
All clones were stained with hamster anti-mouse αCD3, directly conjugated with fluorescein (Pharmingen). The median or percentage of Fas and Fas-L histograms was calculated using lysis II research software (Becton-Dickinson, Mountain View, U.S.A.).

IL-2R = IL-2R (CD25) expression on 3DO transfected clones (flow cytometry); conditions: overexpression of GILR in transfected 3DO clones
Method: For that purpose, GILR transfected clones were activated and analyzed for apoptosis and expression of activation markers, like the interleukin-2 receptor (IL-2R). In particular, after stimulation with cross-linked anti-CD3 monoclonal antibodies (1 μg/ml), GILR-transfected and empty vector clones (used as control) were stained with anti-IL-2R monoclonal antibody (CD25) or treated for propidium iodide labeling for apoptosis evaluation. The supernatants from control and anti-CD3-treated clones were used for IL-2 detection in an ELISA assay.

3DO transfected clones [3] = assay: Apoptosis induced by other stimuli on 3DO transfected clones; conditions: GILR overexpression in 3DO clones GILR/1,5,7 vs pcDNA3/4,7,8, 20 hours
Method: FIGS. 7A-7D are bar-graph representations of the results of the analysis of apoptosis induced by other stimuli on 3DO transfected clones, wherein in FIG. 7A is shown the results obtained with withdrawn trophic factor; in FIG. 7B is shown the results obtained with u.v. irradiation (100 J/m2); in FIG. 7C is shown the results obtained with DEX ([…]); and in FIG. 7D is shown the results obtained with monoclonal (mAb) anti-Fas antibody (5 μg/ml). All groups were treated for 20 hours. Cell death was measured as indicated above with respect to FIG. 6, and as noted herein below. […]
Aliquots of2 ml transfected clones (1×10^6/ml) were incubated with DEX or subjected to deprivation conditions (1% FCS). The apoptosis was evaluated after 20 hours as described below.
Apoptosis was measured by flow cytometry as described elsewhere (Nicoletti et al., 1991). […] The PI-fluorescence of individual nuclei was measured by flow cytometry using standard FACScan equipment (Becton Dickinson). […] A 560 nm dichroid mirror (DM 570) and a 600 nm band pass filter (band width 35 nm) were used to collect the red fluorescence due to PI DNA staining. The data were recorded in logarithmic scale in a Hewlett Packard (HP 9000, model 310; Palo Alto, Calif.) computer. The percentage of apoptotic cell nuclei (sub-diploid DNA peak in the DNA fluorescence histogram) was calculated with specific FACScan research software (Lysis II).

B1: GILR: Glucocorticoid Induced Leucine-zipper family Related protein, 137 amino acids (mouse), overexpressed from GILR cDNA in pcDNA3 (protein)
chain: MNTEMYQTPMEVAVYQLHNFSTSFFSSLLGGDVVSVKLDNSASGASVVALDNKIEQAMDLVKNHLMYAVREEVEVLKEQIRELLEKNSQLERENTLLKTLASPEQLEKFQSRLSPEEPAPEAPETPETPEAPGGSAV
With B1 the TCR/CD3-activated apoptosis (3DO transfected clones [1]) was “inhibits”, the Fas/Fas-L expression [2] was “inhibits” and the “anti-CD3 induced activation (IL-2R, IL-2)” value (IL-2R) was “inhibits”. The “apoptosis induced by DEX, UV irradiation, starvation or crosslinked anti-Fas monoclonal antibody” value (3DO transfected clones [3]) was “does not counteract”.
